We go through five molecules from patent US20210347852A1 (Regeneron, published 2021).

The labels stand for the following.
B1: REGN10102, VEGF trap hIgG2 Fc w/2Cys (Fc fusion)
chain: SDTGRPFVEMYSEIPEIIHMTEGRELVIPCRVTSPNITVTLKKFPLDTLIPDGKRIIWDSRKGFIISNATYKEIGLLTCEATVNGHLYKTNYLTHRQTNTIIDVVLSPSHGIELSVGEKLVLNCTARTELNVGIDFNWEYPSSKHQHKKLVNRDLKTQSGSEMKKFLSTLTIDGVTRSDQGLYTCAASSGLMTKKNSTFVRVHEKVECPPCPAPPVAGPSVFLFPPKPKDTLMISRTPEVTCVVVDVSHEDPEVQFNWYVDGVEVHNAKTKPREEQFNSTFRVVSVLTVVHQDWLNGKEYKCKVSNKGLPAPIEKTISKTKGQPREPQVYTLPPSREEMTKNQVSLTCLVKGFYPSDIAVEWESNGQPENNYKTTPPMLDSDGSFFLYSKLTVDKSRWQQGNVFSCSVMHEALHNHYTQKSLSLSPGK
B2: REGN10117, VEGF Trap hIgG2 Fc w/4 Cys (Fc fusion)
chain: SDTGRPFVEMYSEIPEIIHMTEGRELVIPCRVTSPNITVTLKKFPLDTLIPDGKRIIWDSRKGFIISNATYKEIGLLTCEATVNGHLYKTNYLTHRQTNTIIDVVLSPSHGIELSVGEKLVLNCTARTELNVGIDFNWEYPSSKHQHKKLVNRDLKTQSGSEMKKFLSTLTIDGVTRSDQGLYTCAASSGLMTKKNSTFVRVHEKERKCCVECPPCPAPPVAGPSVFLFPPKPKDTLMISRTPEVTCVVVDVSHEDPEVQFNWYVDGVEVHNAKTKPREEQFNSTFRVVSVLTVVHQDWLNGKEYKCKVSNKGLPAPIEKTISKTKGQPREPQVYTLPPSREEMTKNQVSLTCLVKGFYPSDIAVEWESNGQPENNYKTTPPMLDSDGSFFLYSKLTVDKSRWQQGNVFSCSVMHEALHNHYTQKSLSLSPGK
B3: REGN10105, VEGF mini-trap hIgG2 Fc w/2Cys (other)
chain: SDTGRPFVEMYSEIPEIIHMTEGRELVIPCRVTSPNITVTLKKFPLDTLIPDGKRIIWDSRKGFIISNATYKEIGLLTCEATVNGHLYKTNYLTHRQTNTIIDVVLSPSHGIELSVGEKLVLNCTARTELNVGIDFNWEYPSSKHQHKKLVNRDLKTQSGSEMKKFLSTLTIDGVTRSDQGLYTCAASSGLMTKKNSTFVRVHEKVECPPCPAPPVA
notes: IdeS cleaved from the IgG2 trap; they are kept as one molecule here; also called REGN10105-L3
B4: Human VEGF121 (R&D SYSTEMS Cat #4644-VS) (ligand, UniProt P15692-9 27-147, looked up)
chain: APMAEGGGQNHHEVVKFMDVYQRSYCHPIETLVDIFQEYPDEIEYIFKPSCVPLMRCGGCCNDEGLECVPTEESNITMQIMRIKPHQGQHIGEMSFLQHNKCECRPKKDRARQEKCDKPRR
B5: REGN7483, VEGF mini-trap hIgG1 Fc (other)
chain: SDTGRPFVEMYSEIPEIIHMTEGRELVIPCRVTSPNITVTLKKFPLDTLIPDGKRIIWDSRKGFIISNATYKEIGLLTCEATVNGHLYKTNYLTHRQTNTIIDVVLSPSHGIELSVGEKLVLNCTARTELNVGIDFNWEYPSSKHQHKKLVNRDLKTQSGSEMKKFLSTLTIDGVTRSDQGLYTCAASSGLMTKKNSTFVRVHEKDKTHTCPPCPAPELLG
notes: Enzymatically cleaved from aflibercept; also called REGN7483F; VEGF mini-trap derived from REGN3

Where only a bound is given, the exact number is not on record here.

Assay [1] deals with B4. The experiment in a line: cell-based or functional assay.
Assay [2] deals with T1, Human VEGF165 (REGN110) (human, UniProt P15692-4 27-191).
T1 construct: also called hVEGF165; REGN110-L9
The experiment in a line: SPR (Biacore 3000), 25C, trap captured by REGN18, hVEGF165 injected. On the procedure:
(§1) Equilibrium dissociation constants (KD values) for human VEGF₁₆₅ binding to various purified VEGF mini-trap constructs were determined using a real-time surface plasmon resonance biosensor using a Biacore 3000 instrument. All binding studies were performed in 10 mM HEPES, 150 mM NaCl, 3 mM EDTA, and 0.05% v/v Surfactant Tween-20; pH 7.4 (HBS-ET) running buffer at 25° C. The Biacore sensor surface was first derivatized by amine coupling with a monoclonal mouse anti-VEGFR1 antibody (REGN18) to capture VEGF mini-trap constructs. Binding studies were performed on the following human VEGF reagents: human VEGF₁₆₅. […] Dissociation of bound VEGF₁₆₅ reagent from VEGF mini-trap constructs was monitored for 60 minutes in HBS-ET running buffer. Kinetic association (ka) and dissociation (kd) rate constants were determined by fitting the real-time sensorgrams to a 1:1 binding model using Scrubber 2.0c curve fitting software. Binding dissociation equilibrium constants (KD) and dissociative half-lives (t1/2) were calculated from the kinetic rate constants as: […]
On the technique in general: In SPR one partner is held on a chip, and binding of the other changes the refractive index at the surface.

Assay [3] has as its target B4. The experiment in a line: cell-based or functional assay. This is another data set of the same source.
The target of assay [4] is B4. The experiment in a line: cell-based or functional assay. The source holds these as a separate data set.
In assay [5] the target is B4. The experiment in a line: cell-based or functional assay. This is another data set of the same source.
The target in assay [6] is B4. The experiment in a line: cell-based or functional assay. The source holds these as a separate data set.
Assay [7] deals with T1, Human VEGF165 (REGN110). The experiment in a line: cell-based or functional assay.
The target in assay [8] is T1, Human VEGF165 (REGN110). The experiment in a line: SPR, 25C, trap captured by REGN18, hVEGF165 injected. As for the experimental part:
as §1

Assay [9] concerns the target T2, VEGFR1 chimeric receptors Flt1(1-7)-IL18Rα / Flt1(1-7)-IL18Rβ on HEK293/D9 reporter cells (UniProt P17948 27-758; Q13478 351-541; P17948 27-758; O95256 378-599, limits assumed). The experiment in a line: cell-based or functional assay.
Assay [10] concerns the target T2, VEGFR1 chimeric receptors …. The experiment in a line: cell-based or functional assay. The source holds these as a separate data set.
The target in assay [11] is T1, Human VEGF165 (REGN110). The experiment in a line: cell-based or functional assay. This is another data set of the same source.

T2 sequence (P17948 other isoform, or with tags, fused parts or gaps mutant limits assumed, chain 1 of 2): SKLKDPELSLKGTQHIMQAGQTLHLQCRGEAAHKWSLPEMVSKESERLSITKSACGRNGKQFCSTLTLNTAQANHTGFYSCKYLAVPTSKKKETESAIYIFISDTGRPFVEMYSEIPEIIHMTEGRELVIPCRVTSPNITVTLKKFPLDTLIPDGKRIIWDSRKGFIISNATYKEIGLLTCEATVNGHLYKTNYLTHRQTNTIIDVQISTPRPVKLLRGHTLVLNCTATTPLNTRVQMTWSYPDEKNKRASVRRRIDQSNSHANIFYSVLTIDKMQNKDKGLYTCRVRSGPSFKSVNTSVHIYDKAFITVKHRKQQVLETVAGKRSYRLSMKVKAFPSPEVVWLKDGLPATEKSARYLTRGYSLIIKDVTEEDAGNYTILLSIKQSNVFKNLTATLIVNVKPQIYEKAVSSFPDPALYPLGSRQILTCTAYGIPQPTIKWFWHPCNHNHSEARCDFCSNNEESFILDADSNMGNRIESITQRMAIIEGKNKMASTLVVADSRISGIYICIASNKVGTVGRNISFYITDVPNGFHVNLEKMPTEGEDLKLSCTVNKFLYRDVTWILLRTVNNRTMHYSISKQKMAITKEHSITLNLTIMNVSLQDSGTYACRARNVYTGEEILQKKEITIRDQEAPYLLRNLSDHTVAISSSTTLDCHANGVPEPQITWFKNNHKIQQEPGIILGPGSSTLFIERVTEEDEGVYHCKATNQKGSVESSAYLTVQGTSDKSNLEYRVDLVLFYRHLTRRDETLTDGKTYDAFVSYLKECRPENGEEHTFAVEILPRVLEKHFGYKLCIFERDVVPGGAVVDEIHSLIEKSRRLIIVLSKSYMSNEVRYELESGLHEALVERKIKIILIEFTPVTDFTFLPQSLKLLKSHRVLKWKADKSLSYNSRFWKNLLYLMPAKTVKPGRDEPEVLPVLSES
T2 sequence (P17948 other isoform, or with tags, fused parts or gaps mutant limits assumed, chain 2 of 2): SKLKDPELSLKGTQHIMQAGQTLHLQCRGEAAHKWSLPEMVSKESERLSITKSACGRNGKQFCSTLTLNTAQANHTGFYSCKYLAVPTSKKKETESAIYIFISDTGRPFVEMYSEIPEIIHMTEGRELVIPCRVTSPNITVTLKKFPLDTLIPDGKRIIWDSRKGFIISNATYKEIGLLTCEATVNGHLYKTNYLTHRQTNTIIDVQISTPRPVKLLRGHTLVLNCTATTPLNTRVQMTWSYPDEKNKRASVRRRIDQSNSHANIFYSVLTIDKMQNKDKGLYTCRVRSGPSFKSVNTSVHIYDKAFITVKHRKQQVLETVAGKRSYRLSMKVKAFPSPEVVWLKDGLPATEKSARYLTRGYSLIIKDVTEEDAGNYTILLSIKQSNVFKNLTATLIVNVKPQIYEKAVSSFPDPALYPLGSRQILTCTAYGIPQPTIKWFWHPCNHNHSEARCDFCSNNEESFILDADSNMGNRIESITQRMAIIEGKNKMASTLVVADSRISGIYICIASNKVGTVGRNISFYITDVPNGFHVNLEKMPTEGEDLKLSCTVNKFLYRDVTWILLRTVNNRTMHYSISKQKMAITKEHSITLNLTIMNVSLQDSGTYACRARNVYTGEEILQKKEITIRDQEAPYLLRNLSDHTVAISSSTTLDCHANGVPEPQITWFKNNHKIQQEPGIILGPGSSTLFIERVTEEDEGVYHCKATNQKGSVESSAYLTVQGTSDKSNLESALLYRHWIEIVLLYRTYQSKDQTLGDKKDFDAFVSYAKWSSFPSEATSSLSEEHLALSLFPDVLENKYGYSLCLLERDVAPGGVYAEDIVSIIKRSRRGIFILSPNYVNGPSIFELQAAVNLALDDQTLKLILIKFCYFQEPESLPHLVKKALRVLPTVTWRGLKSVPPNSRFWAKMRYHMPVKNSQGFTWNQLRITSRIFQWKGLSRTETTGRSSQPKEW

A word on the Kd: it is the concentration at which binding is half-saturated. High values mean weaker binding, low ones tighter binding. As a reminder, the koff is the rate constant with which the complex falls apart. A high value points to fast dissociation. Usually kon stands for the second-order rate constant of association. High values mean fast association, low ones slow association. One may read the t½ as the time needed for the level to fall by half in the phase considered. The low end stands for rapid decline, the high end for slow decline. Take B1: in assay [1], the “IC50 (read off the curve); NFkB-luciferase reporter (RLU), 293/D9/VEGFR1 cells, VEGF121 constant 40 pM [C]” value was around 1e-11 M. Moreover, in the assay with Human VEGF165 (REGN110) [2], the “2.5 nM hVEGF165 Bound (RU)” value was found to be 6.6 RU, the Kd amounted to 2.6 pM, the koff was found to be 2.77e-05 s⁻¹ and the kon came out at 1.06e+07 M⁻¹ s⁻¹. Also, the “t½” value with Human VEGF165 (REGN110) [2] came to 6.95 h. Also, in assay [3], the “IC50, Inhibition of 20 pM VEGF121, VEGFR1 assay (luciferase)” value (“IC50, Inhibition of 20 pM VEGF121” below) amounted to 1.43e-11 M.
Turning to B2, the “IC50 (read off the curve); NFkB-luciferase reporter (RLU), 293/D9/VEGFR1 cells, VEGF121 constant 40 pM [A]” value in assay [4] is around 2e-11 M. Besides, in the assay with Human VEGF165 (REGN110) [2], the “2.5 nM hVEGF165 Bound (RU)” value is 4.2 RU, the Kd is at most 1.37 pM, the koff is at most 1e-05 s⁻¹ and the on-rate (kon) was found to be 7.3e+06 M⁻¹ s⁻¹. For the same molecule, the “t½” value with Human VEGF165 (REGN110) [2] is at least 19.2 h. In addition, the “IC50, Inhibition of 20 pM VEGF121” value in assay [3] was found to be 2.02e-11 M.
Take B3: the “IC50 (read off the curve); NFkB-luciferase reporter (RLU), 293/D9/VEGFR1 cells, VEGF121 constant 40 pM [E]” value in [5] is around 2e-11 M. Moreover, in the assay with Human VEGF165 (REGN110) [2], the “2.5 nM hVEGF165 Bound (RU)” value was found to be 10.5 RU, binding was characterised by a dissociation constant (Kd) of 1.89 pM, the koff stood at 1.44e-05 s⁻¹ and the kon was found to be 7.62e+06 M⁻¹ s⁻¹. The “t½” value with Human VEGF165 (REGN110) [2] amounted to 13.3 h. Moreover, the “IC50, VEGFR1 40 pM R&D VEGF121 (luciferase)” value in assay [6] was determined as 1.74e-11 M. In addition, the “IC50, VEGFR1 40 pM VEGF165 (REGN110) (luciferase)” value in the assay with Human VEGF165 (REGN110) [7] worked out at 1.06e-11 M. Moreover, the “IC50, Inhibition of 20 pM VEGF121” value in assay [3] amounted to 1.68e-11 M. Moreover, in the assay with Human VEGF165 (REGN110) [8], the “2 nM VEGF165 Bound (RU)” value was found to be 20.4 RU, the Kd was 1.08 pM, the koff was at most 1e-05 s⁻¹ and the kon was 9.3e+06 M⁻¹ s⁻¹. Besides, the “t½” value with Human VEGF165 (REGN110) [8] was at least 19.2 h.
On to B4, for which, in assay [9], the “EC50 (read off the curve); NFkB-luciferase reporter (RLU), 293/D9/VEGFR1 cells, VEGF121 titrated alone [A]” value is around 100 pM. Further, in assay [10], the “EC50 of activation of HEK293/D9/Flt-IL18Rα/Flt-IL18Rβ (VEGFR1) luciferase reporter cells” value was around 30 pM.
For B5, in assay [4], the “IC50 (read off the curve); NFkB-luciferase reporter (RLU), 293/D9/VEGFR1 cells, VEGF121 constant 40 pM [A]” value is around 2e-11 M. For the same molecule, in the assay with Human VEGF165 (REGN110) [2], the “2.5 nM hVEGF165 Bound (RU)” value was 9.37 RU, the Kd was 1.9 pM, the koff was 1.95e-05 s⁻¹ and the kon was found to be 1.01e+07 M⁻¹ s⁻¹. The “t½” value with Human VEGF165 (REGN110) [2] is 9.85 h. Also, the “IC50, Inhibition of 20 pM VEGF121” value in [3] was 2.09e-11 M. Also, in the assay with Human VEGF165 (REGN110) [11], the “IC50, Inhibition of 20 pM VEGF165, VEGFR1 assay (luciferase)” value is 3.36e-11 M.
